This note sets out measurements from article PMC7437355 (2020).

Experiment [1] addresses KRAS4b(1–169), wild type, GMPPNP-bound (UniProt P01116-2 1-169). As to the kind of experiment: ITC; GMPPNP. On the technique in general: In ITC the heat of successive injections is recorded.
Experiment [2] addresses T1, SPRED1(EVH1), SPRED1(13–125), wild type (ITC) (human, UniProt Q7Z699 13-125).
T1 chain: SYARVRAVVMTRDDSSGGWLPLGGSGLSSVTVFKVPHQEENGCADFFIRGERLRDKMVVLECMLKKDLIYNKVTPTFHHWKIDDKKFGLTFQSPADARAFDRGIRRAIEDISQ
As to the kind of experiment: ITC.

B1: NF1 isoform I (GRD containing additional 23 residues) (domain or fragment)
chain: DRFERLVELVTMMGDQGELPIAMALANVVPCSQWDELARVLVTLFDSRHLLYQLLWNMFSKEVELADSMQTLFRGNSLASKIMTFCFKVYGATYLQKLLDPLLRIVITSSDWQHVSFEVDPTRLEPSESLEENQRNLLQMTEKFFHAIISSSSEFPPQLRSVCHCLYQATCHSLLNKATVKEKKENKKSVVSQRFPQNSIGAVGSAMFLRFINPAIVSPYEAGILDKKPPPRIERGLKLMSKILQSIANHVLFTKEEHMRPFNDFVKSNFDAARRFFLDIASDCPTSDAVNHSLSFISDGNVLALHRLLWNNQEKIGQYLSSNRDHKAVGRRPFDKMATLLAYLGPPEH
The Kd is a measure of binding affinity in units of concentration. Lower therefore signals a tighter complex. As to B1, the Kd was found to be 4000 nM in experiment [1] and 260 nM in experiment [2].
